We go through 30 sequences from the nanobody polyreactivity screen of Harvey et al. (2022).

This series in a line: yeast display, Sf9 membrane polyspecificity reagent, FACS + sequencing; frameworks hold sequencing errors. Put shortly: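 In a synthetic yeast display library (Saccharomyces cerevisiae BJ5465), nanobody expression was induced with galactose for 36–48 hours. FACS gates were set low and high (top ~1%) using anti-HA fluorescence for expression and streptavidin fluorescence for binding of the Sf9 membrane reagent. Each polyreactivity label is drawn from the gate of origin.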
“QVQLVESGGGLVQAGGSLRLSCAASGRTFGYNAMGWYRQAPGKERELVATISWGGGSTYYADSVKGRFTISRDNAKNTVYLQMNSLKPEDTAVYYCNKVHYGRRHSYSGAIYGEDYWGQGTQVTVSS”: the “polyreactivity (PSR sort gate)” value is recorded as “high polyreactivity”.

For “QVQLVESGGGLVQAGGSLRLSCAASGRIFWGNAMGWYRQAPGKERELVAAITSGDGTNYADSVKGRFTISRDNAKNTVYLQMNSLKPEDTAVYYCSYYYWGQGTQVTVSS”, the “polyreactivity (PSR sort gate)” value was “low polyreactivity”.

For the sequence “HVQLVESGGGLVQAGGSLRLSCAASGRIFRYAMAWYRQAPGNETELVAAISSSGGGTYYADSVKGRFTISRDNAKNTVNLQMNSLKREDTAVYYCIAEYGWRFDYWGQGTQVTVSS”, the “polyreactivity (PSR sort gate)” value is recorded as “high polyreactivity”.

Regarding “QVQLEESGGGLVQAGGSLRLSCAASGFIFAQNAMGWYRQAPGKERELVARIRVSGTRTYYADSVKGRFTISRDNAKNTVYLQMNSLKQEDTAVYYCAAVPYTYDFGYKRFYWGQGTQVTVSS”, the “polyreactivity (PSR sort gate)” value was “high polyreactivity”.

As to “QVQLVESGGGLVQAGGSLRLSCAASGRTFGWYAMGWYRQAPGKERELVAAISLSGGSTYYADSVKGRFTISRDNAKNTVYLQMNSLKPEDTAVYYCNALILPTKMGYWGQGTQVTVSS”, the “polyreactivity (PSR sort gate)” value was “low polyreactivity”.

Take “QVQLVESGGGLVQAGGSLRLSCAASGFTFEYYAMGWYRQARGKERELVASITNSGTRTYYADSVKGRFTISRDNAKNTVYLQMNSLKPEDTAVYYCAATPWNGRYSRFGYWGQGTQVTVSS”: the “polyreactivity (PSR sort gate)” value is on record as “high polyreactivity”.

Turning to “QVQLVESGGGLVQAGGSLRLSCAASGRTFRPYAMGWYRQAPGKERELVAVITSGDSTSYADSVKGRFTISRDNAKNTVYLQMNSLKPEDTAVYYCAADSYSGYNYWGQGTQVTVSS”, the “polyreactivity (PSR sort gate)” value is reported as “low polyreactivity”.

As for “QVQLVESGGGLVQAGGSLRLSCAASGYTFGAYAMGWYRQAPGKERELVAAIPVRAGRTYYADSVKGRFTISRDNAKNTVYLQMNSLKPEDTAVYYCARRNPLGGNEHDYWGQGTQVTVSS”, the “polyreactivity (PSR sort gate)” value is on record as “low polyreactivity”.

Take “QVQLVESGGGLVQAGGSLRLSCAASGPIFVENAMGRNRPAPGKERELVAAISGGGSTDYADSVKGRFTISRDNAKNTVYLEMNSLKPVYTAVYFCNARQVFTTAGGEMDYWGQGTQVTVSS”: the “polyreactivity (PSR sort gate)” value is “low polyreactivity”.

As to “QVQLLESGGGLVQAGGSLRLSCAASGFTFQYYAMGWYRQAPGKERELVAAITRGDSTNYADSVKGRFTISRDNAKNTVYLQMNSLKPEDTAVYYCAAGSAPSYWGGWYYERDYWGQGTQVTVSS”, the “polyreactivity (PSR sort gate)” value is on record as “low polyreactivity”.

As for “QVQLVESGGGLVQAGGSLRLSFAASGRIFRSYAMGWYRQAPGKERELVAAITSGGSTYYADSVKGRFTISRDNAKNTVYLQLNSLKPEDTAVYYCNADYDVSSPRPAFDYWGQGTQVTVSS”, the “polyreactivity (PSR sort gate)” value was “low polyreactivity”.

Consider “QVQLVESGGGLVQAGGSLRLSCAASGLTFQKYAMGWYRQAPGKERELVAAISRGGDTYYADSVKGRFTISRDNAKNTVYLQMNSLKPEDTAVYYCAASNYLYRYSHYGYWGQGTQVTVSS”, for which the “polyreactivity (PSR sort gate)” value is on record as “high polyreactivity”.

On to “QVHLVESGGGLVQAGGSLRLSCAASGSTLYTYGMGWYRQAPGKERELVASISWRAARTYYADSVKGRFTISRDNAKNTVYLQMNSLKPEDTAVYYCNADYYIAPYDSWGQGTQVTVSP”, for which the “polyreactivity (PSR sort gate)” value is given as “low polyreactivity”.

In the case of “QVQLVESGGGLVQAGGSLRLSCSASGRIFPRNAMGWYRQAPGKERHLVAAISQSGTSTYYADSVKGRFTISRDNAQKTVYLQMNSLKREDTAVYYCAASGWDHVIVEYDYWGEGTQVTVSS”, the “polyreactivity (PSR sort gate)” value is on record as “low polyreactivity”.

Turning to “QVQLVESGGGLVQAGGILRLSCAASGSIFRQNPMGWYRKAPGKERELVAAISSGGSTYYADSVKGRFTISRDNAKNNVYLQRNSLKPEDTAVYYCAAYHSFVWGDDYWGQGTQVTVSS”, the “polyreactivity (PSR sort gate)” value is reported as “low polyreactivity”.

On to “QVQLVESGGGLVQAGGSLRLSGAASGFIFIGYTMGWYRQAPGKAWELVATISLGDDSTYYADSVKGRFTISRDNAKNTVYLQMNSLKPEDTAVYYCAGDQKDGTTSAYDYCGQGTQVTVSS”, for which the “polyreactivity (PSR sort gate)” value is “low polyreactivity”.

With “QVQLVESGGGLVQAGGSLRLSCAATGSIFQSYAMGRYRQAPGKERELVAGISSGGSTNYADSVKGRFTISRDNAMNTDYLQMNSLKPEDTAVYYCATGGFAGASFAYEYYYWGQGTQVTVSS”, the “polyreactivity (PSR sort gate)” value is listed as “low polyreactivity”.

Consider “QVQLVESGGGLVQAGGSLRLSCAASGSTFENNVMAWYRQAPGKERELVATITWGDGSTSYADSVKGRFTISRDNAKNTVYLQMNSLKPEDTAVYYCAADSAENVYRGYYWGQGTQVTVSS”, for which the “polyreactivity (PSR sort gate)” value was “low polyreactivity”.

Turning to “QVQLVESGGGLVQAGGSLRLRCAASGSTFHIYAMGWYRQAPGKERELVAAISKGGGNTYYADSVKGRFTISRDNAKNPVYLQLNSLKPEDTAGYYCAAVPTRYRSYSYTYGGYNYWGQGTQVTVSS”, the “polyreactivity (PSR sort gate)” value is listed as “high polyreactivity”.

With “QVQLVESGGRLVQAGGSLRLSCAASGSTFRKYAMGWYIQAPGKERELVASISRGGTTYYADSVKGRFTISRDNAKNTVYLQMNSLKPEDTAVYYCNKASYRWYWGYLDYYYWGQGTQVTVSS”, the “polyreactivity (PSR sort gate)” value was “high polyreactivity”.

With “QLQLVESGGGLVQAGGSLRLSCAASGSTFRYNAMGWYRQAPGKEREFVAAITSGGGSTYYADSVKGRFTISRDNAKNTVYLQMNSLKPEDTAVYYCAKYTSSRRNTWYYYWGQGTQVTVSS”, the “polyreactivity (PSR sort gate)” value was “high polyreactivity”.

As to “QVQLVESGGGLVQAGGSLRLSCAASGIIFEGYAMGWYRQAPGKERELVAAISQSGGSTRYADSVKGRFTISRDNAKNTVYLQMNSLKPEDTAVYYCAARYILWDGDSWTEFDYWGQGTQVTVSS”, the “polyreactivity (PSR sort gate)” value was “low polyreactivity”.

As to “QVQLVESVGGLVQAGGSLRLSCAASGRTFQYNAMGWYRPAPGKERELVAAISSSGGSTYYADSVKGRFTISRDNAKNTVYLQMNSLKPEDTAVYYCNAYSQSWNFYGDGDYWGQGTQVTVSS”, the “polyreactivity (PSR sort gate)” value was “low polyreactivity”.

With “QVQLVESGGGLVQAGGSLRLSCAASGYIFPAYAMGWYRQAPGKERELVAAISWSTGSTYYADSVKGRFTISRDNAKNTVYLQMNSLKPEDTAVYYCAAGRPRRVPDHWYIYYYWGQGTQVTVSS”, the “polyreactivity (PSR sort gate)” value is recorded as “low polyreactivity”.

As for “QVQLVESGGGLVQAGGSLRLSCAASGSIFYGYAMGWYRQAPRKERELVAAISSSGGSTYYADSVKGRFTISRDTAKNTVYLQMNSLKPEDTAVSYCARSRSYWGIVYGRYDYWGQGTQVTVSS”, the “polyreactivity (PSR sort gate)” value is “high polyreactivity”.

Take “QVQLVESGGGLVQAGGSLRLTCAASGRIFYKYVMGWYRQAPGKERELVATITSGGSTYYADSVKGRFTISRDNAKNTVYLHMNSLKPEDTAVYYCAARKYYSRAYDYWGQGTQVTVSS”: the “polyreactivity (PSR sort gate)” value is listed as “high polyreactivity”.

Turning to “QVQVVESGGGLVQAGGSLRLSCAASGFTFDYYNMGWYRQAPGKERELVAAITSGASTNYADSVKGRFTISRDNAKNTVYLQMNSLKPEDTAVYYCAAVLAGGVYWVVHYDYWGQGTQVSVSS”, the “polyreactivity (PSR sort gate)” value is “low polyreactivity”.

Turning to “QVQLVESGGGLVQAGGSLRLSCAASGSIFWTNAMGWYRQAPGKERELVAAITSGGNTNYADSVKGRFTISRDNAKNTVYLQMNSLKPEDTAVYYCAARYGRGWRRTYTQYDSWGQGTQVTVSS”, the “polyreactivity (PSR sort gate)” value is on record as “low polyreactivity”.

Take “QVQLVESGGGLVQAGGSLRLSCAASGFIFGGYAMGWYRQAPGKERELVAAITWSGGNTYYADSVKGRFTISRDNAKNTVYLQMNSLKPEDTAVYYCAADYWTKYGYWGLGTQVTVSS”: the “polyreactivity (PSR sort gate)” value is reported as “low polyreactivity”.

Take “QVQLVESGGCLVQAGGSLRLSCAASGSTFGYYAMGWYRQAPGKERELVAAITSNDGSTHYADSVKGRFTISRDNAKNTVYLQMNSLKPEDTEVYYCNARSFVAVISSFVYWGQGTQVTVSS”: the “polyreactivity (PSR sort gate)” value is “low polyreactivity”.
